Data published in article PMC7531186 (Journal of the American Chemical Society, 2020).
Read-outs that look alike come from different tables or passages of the source.

Legend:
SPOP ΔBACK^28–337 [1] = target: T1, SPOP ΔBACK^28–337 (UniProt O43791 28-337); assay: fluorescence polarisation
SPOP ΔBACK^28–337 [2] = target: T1, SPOP ΔBACK^28–337; assay: fluorescence polarisation; remark: listed apart in the source

T1 sequence (O43791 28-337, stated change not applied): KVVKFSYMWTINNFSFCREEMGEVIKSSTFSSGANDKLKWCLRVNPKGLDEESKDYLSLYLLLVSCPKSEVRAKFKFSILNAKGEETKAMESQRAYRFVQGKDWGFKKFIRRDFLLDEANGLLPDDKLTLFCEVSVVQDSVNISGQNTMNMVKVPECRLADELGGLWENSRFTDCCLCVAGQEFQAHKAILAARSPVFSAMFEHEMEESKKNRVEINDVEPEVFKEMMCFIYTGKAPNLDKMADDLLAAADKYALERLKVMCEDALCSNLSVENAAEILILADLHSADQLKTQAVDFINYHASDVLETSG

Kd (SPOP ΔBACK^28–337 [1]): 17 µM
Kd (SPOP ΔBACK^28–337 [2]): 10 µM
B1: rhodamine-labeled His-cDAXX^495–740 (domain or fragment, UniProt Q9UER7 495-740, looked up)
chain: SPMSSLQISNEKNLEPGKQISRSSGEQQNKGRIVSPSLLSEEPLAPSSIDAESNGEQPEELTLEEESPVSQLFELEIEALPLDTPSSVETDISSSRKQSEEPFTTVLENGAGMVSSTSFNGGVSPHNWGDSGPPCKKSRKEKKQTGSGPLGNSYVERQRSVHEKNGKKICTLPSPPSPLASLAPVADSSTRVDSPSHGLVTSSLCIPSPARLSQTPHSQPPRPGTCKTSVATQCDPEEIIVLSDSD
modifications: labeled with Rhodamine Red C2 maleimide
